Data on 41 sequences can be found in the nanobody polyreactivity screen of Harvey et al. (2022).

A short description of this data set: yeast display, Sf9 membrane polyspecificity reagent, FACS + sequencing; frameworks hold sequencing errors. Put shortly: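 Polyreactivity labels are assigned by the sorting gate from which each nanobody was recovered. The gates were low and high (top ~1%), set on anti-HA fluorescence for expression and streptavidin fluorescence for reagent binding. Before sorting, galactose-induced (36–48 hours) yeast display cells were stained for 1 hour at 4 °C with 10% biotinylated, detergent-solubilized Sf9 membrane reagent.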
Regarding “QVQLVESGGGLVEAGGSLRLTCAASGSIFTYYAMGWFRPAPGKERELVADITKSGGRTYYADSVKGRFTISRDNAKNTVYLQMYSLKPEDTAVYYCAAYRRNSRWELDYWGHGTQVTVSS”, the “polyreactivity (PSR sort gate)” value is reported as “high polyreactivity”.
Regarding “QVQLVESGGGLVHAGCSLRLSCAASGFTFKYYAMGWYRQPPGKEREIVAAISYSGGRTYYADSVKGRFTISRDNAKNTVYLQMNSLKPEDTAVYYCATDDVWKDGYWGQGTQVTVSS”, the “polyreactivity (PSR sort gate)” value is “low polyreactivity”.
The same measure for “QVQLVESGGGLVHAGGRLRLSCAASGRIFWINAMGWSRQAPGKDRELVATISSGSTSYADSVKGRFTISRDNAKNTVYLQMNRLKPEATAVYYCAVTLRYTRSGAYDYWGQGTQVTVSS”: “low polyreactivity”.
The entry for “QVQLVESGGGLVHAGGRLRLSFAASGSIFAVYAMGWYRQAPGKEREFVARIAWGGGRTYYADSVKGRFTISRDNAQNTVYLQMNSLKPEDTAVYYCNAERAGTYRYDYWGQGPQVTVSS” is “high polyreactivity”; for “QVQLVESGGGLVHAGGSIRLSCAASGRIFPAYAMGWYRQAPGKERELVASIRRGGITYADSVKGRFTISRDNAKNTVYLQMNSLKPEDTAVYYCNADYRGWVYHMDYWGQGTQVTVSS” it is “low polyreactivity”.
For the sequence “QVQLVESGGGLVHAGGSLPLSCAASGLTFGSNPMRTYRQAPVQERELVAAISGGTSTNYADSVKGRFTISRDNAKNTVYLQMNSMTPEDTAVYYCAAAKRTADYASYWYVENDYWGQGSQVTVSS”, the “polyreactivity (PSR sort gate)” value was “low polyreactivity”.
Consider “QVQLVESGGGLVHAGGSLRISCAASGSTFEWNAMGWYRQAPGKEREFVAAISKTGDGTYADSVKGRFTISRDNAKNSVYLQMNSLKPEDTAVYYCAAVDGFWVNYWYRIGYDYWGQGTQVTVSS”, for which the “polyreactivity (PSR sort gate)” value was “low polyreactivity”.
Take “QVQLVESGGGLVHAGGSLRLSCAACGRIFTYYAMGWYRQAPGKERELVAAITWSGGSTYYADSVKGRFTISRDNAKNTVYLQMNSLKPEDTAVYYCNAVVLHVTTDNSTFTTDDYWGQGTQVTVSS”: the “polyreactivity (PSR sort gate)” value is reported as “low polyreactivity”.
The same measure for “QVQLVESGGGLVHAGGSLRLSCAASGFIFAANAKGWYRQAPGKERELVAAINYRGSSTYYADSVKGRFTISRDNAKNTVYLQMNSLKPYDTAVYYCAAVSSIYSGYGYWGQGTQVTVSS”: “high polyreactivity”.
Consider “QVQLVESGGGLVHAGGSLRLSCAASGFIFDRYVMGWYRQAPGKERDLVAAINRSGGSTYYADSVKGRFTISRDNAKNTVYLQMNSLKPEDTAVYYCAADRAGSFTTMDYWGHGTQVTVSS”, for which the “polyreactivity (PSR sort gate)” value is given as “high polyreactivity”.
For “QVQLVESGGGLVHAGGSLRLSCAASGFIFDTYAMGWYRQAPGKERELVAAISRSGVRTYYADSVKGRFTISRDNAKNTVYLQMNILKPEDTAVYYCNAALNRYHFGRAFPGVYWGHGTQVTVSS”, the “polyreactivity (PSR sort gate)” value was “high polyreactivity”.
For the sequence “QVQLVESGGGLVHAGGSLRLSCAASGFIFGINAMGWYRQAPGKERELVATITSGGGTNYADSVKGRFTISRDNAKNTVYLQMKSVKPEDTAVYYCADEDDYIYFYLSMDYWGQCTQVTVSS”, the “polyreactivity (PSR sort gate)” value is reported as “low polyreactivity”.
As to “QVQLVESGGGLVHAGGSLRLSCAASGFIYDAYANGWYRQSPGKERELVAAIDSGGSTDYADSVKGRFTISRDNAKNTVYLQMNSLKPEDTAVYYCNAERAYLWWYNFDYWGQGTQVTVSS”, the “polyreactivity (PSR sort gate)” value is “low polyreactivity”.
The same measure for “QVQLVESGGGLVHAGGSLRLSCAASGFTFGSNAMGWYRQAPGKERELVAAISSRGGRTYYADSVKGRFTISRDNAKNTVYLQMNRLKPDDTAVYYCNADATVAWREQEYEYWGQGTQVSVSS”: “high polyreactivity”; for “QVQLVESGGGLVHAGGSLRLSCAASGITFEVYGMGWYRQSPGKERELVAAINSDGNTNYADSVKGRFTISRDNAKNTVYLEMNSVKPEDTAVYYCATVVNAQISRGESAVTGYYYWGQGTQVTVSS”: “high polyreactivity”; for “QVQLVESGGGLVHAGGSLRLSCAASGITSPYSMGWYRQSPGKERELVAAISSGASTYYADTVKGRFTISRDNAKNTVYLQMNSLKPEVTAVYYCNRVTKRYPNIGNYWGQGTQVTLSS”: “high polyreactivity”.
Turning to “QVQLVESGGGLVHAGGSLRLSCAASGLIFPRYDMGWYRQAPGKELELVAAITSGGGTYYADSVKGRITISRDNAKNTVYLQMNSLIPEDTAVYYCARDHYRHSRFFYRYVYWGQGTQVSVSS”, the “polyreactivity (PSR sort gate)” value is reported as “low polyreactivity”.
For “QVQLVESGGGLVHAGGSLRLSCAASGLTFYGYTMGCYRQAPGKERQLVADISISGGSTRYADSVKGRFTISRDNAKNTVYLQMISLKPEDTAVYYCARDDIYYSNIYDYWGQGTQVTVSS”, the “polyreactivity (PSR sort gate)” value is “low polyreactivity”.
With “QVQLVESGGGLVHAGGSLRLSCAASGMTFTKNVMGWYRQSPGKERELVAVISRSGGSTYYADSVKGRFTISRDNAKNTVYLQMNSLKPEDTAVYYCNVKGPGPSRGNYWGQGTQVTVSS”, the “polyreactivity (PSR sort gate)” value is listed as “low polyreactivity”.
Take “QVQLVESGGGLVHAGGSLRLSCAASGRIFGVYAMGWYRQAPGKERELVAAISEGGGSTNYADSVKGRFTISRDNAKNTVYLQMNSLKPEDTAVYYCAATYRTGVRRYYSWGQGTQVTVSS”: the “polyreactivity (PSR sort gate)” value was “low polyreactivity”.
The entry for “QVQLVESGGGLVHAGGSLRLSCAASGRTFGTYAKGWYRQAPGKERELVAAISSRGGSTYYADSVKGRFTISRDNAKNTVYLQMNSLKPEDTAVYYCAQRVKDGSGYWGQGTQVTVSS” is “high polyreactivity”.
Consider “QVQLVESGGGLVHAGGSLRLSCAASGRTFNRYAMGWYRQAPGKERELVAAISGGGSSTSYADSVKGRFTISRDNAKNTVYLQMNSLKPEDTAVYYCAAKYGGLRYYNMYYWGQGTQVTVSS”, for which the “polyreactivity (PSR sort gate)” value is given as “low polyreactivity”.
The entry for “QVQLVESGGGLVHAGGSLRLSCAASGRTFNWNAMGWYRQEPGKEREFVASINGGGSSYYADSVKGRFTISRDNAKNTVYLQMNSLKPDDTAVYYCAAPWVGTFVSGRCYYWGQGTHVTVSS” is “low polyreactivity”; for “QVQLVESGGGLVHAGGSLRLSCAASGRTFRWYALGWYRQAPGKERELVAAISSSGTRTYYADSVKGRFTISRDNAKNTVYLQMNSLKPEDTAVYYCAATWRVGYDYWGQGTQVTVSS” it is “high polyreactivity”; for “QVQLVESGGGLVHAGGSLRLSCAASGRTLKYYAMGWYRQAPGKERELVAAISGGDSTYYADSVKGRFTISRDNAKNTVYLQMNSLKPEDTAVYYCNARRFIWWYPYLRDYWGQGTQVTVSS” it is “high polyreactivity”.
The entry for “QVQLVESGGGLVHAGGSLRLSCAASGSIFDDYAMGWYRQAPGKERELVAAITSGGSTYYADSVKGRFTISRDNAKNTVYLQMNSLKTEDTAVYYRATRYHWSSCFAPVGAYGYWGLGTQVTVSS” is “low polyreactivity”; for “QVQLVESGGGLVHAGGSLRLSCAASGSIFEGNGMGWYRQAPGKERELVAAITFRSGSTYNADSVKGRFTISRDNEKNTVYLPMNSLKPEDTAVYYCAADEYYQVSAYDYWGQGTQVTVSS” it is “low polyreactivity”; for “QVQLVESGGGLVHAGGSLRLSCAASGSIFGWYAMGWYRQAPGKERELVASISWSGGGTYYADSVKGRFTISRDNAKNTVYLQMKSLKPEDTAVYYCAAVYIWRYGIRGGYYWGQGTQVSVSS” it is “high polyreactivity”.
Consider “QVQLVESGGGLVHAGGSLRLSCAASGSIFNVYAMGWYRQAPGKERELVAAITQSGGSTYYADSVKGRFTISRDNAKNTVYLQMNSLKPEDTAVSYCAADNRYTYYYWGQCTQVTVSS”, for which the “polyreactivity (PSR sort gate)” value was “low polyreactivity”.
The same measure for “QVQLVESGGGLVHAGGSLRLSCAASGSIFRGYAMGWYRQAPGKERELVAAISRDGGSTYYADSVKGRFSISRDNAKNTVYLQMNSLKPEETAVYYCAADYVAYATYGDGDYWGQGTQVTVSS”: “high polyreactivity”; for “QVQLVESGGGLVHAGGSLRLSCAASGSIFRPYAMGWYRQAPGKERELVAAISRRGGSTYYADSVKGRFTISRDNAKNTVYLQLISLKPEDTAVYYCAADHSGPSPYGYGYWGQGTQVTVSS”: “high polyreactivity”; for “QVQLVESGGGLVHAGGSLRLSCAASGSIFVRNDMGWYRPAPGKERELVAVITRSAGGTYYADSVKGRFTISRDTAKNSVYFQMNSLKPEDTAFYYCAASPSTPNKYGSWGHGTQVTVSS”: “high polyreactivity”.
The same measure for “QVQLVESGGGLVHAGGSLRLSCAASGSIITYYAMGWSRQAPGKERELVAVISASGGRTYYADSVKVRFTISLDNAMYSVYLQMNSLKPEDTAVYYCAAYRSIYSFKFGYWGQGSQVTVSS”: “high polyreactivity”; for “QVQLVESGGGLVHAGGSLRLSCAASGSILARYARGWYRQEPGKERELVAAISSRGGSTYYADSVKGRFTISRDYAKNTVYLQMNSLKPEDTAVYYCAASVYLQVEYDYWGQGTQVTVSS”: “low polyreactivity”.
For “QVQLVESGGGLVHAGGSLRLSCAASGSTFDRNAMGWARQAPGKDMELVDAISRSGGSTNYADSVKGRFTISRDNAKNTVYLQMNSLKPEDTAVYYCAAVRPLWYGQGWALYWFEYWGQGTQVTVSS”, the “polyreactivity (PSR sort gate)” value is recorded as “low polyreactivity”.
Consider “QVQLVESGGGLVHAGGSLRLSCAASGSTFIRNAMGWYRQAPGKERELVAAISSSGGRTYYADSVKGRFTISRDNAKNTVYLQMNSLKPEDTAVYYCAARYVPPWGRRYYYWGQGTQVTVSS”, for which the “polyreactivity (PSR sort gate)” value is “high polyreactivity”.
The entry for “QVQLVESGGGLVHAGGSLRLSCAASGSTFNRYAMGWYRQAHGKERELVASISWGGGRTYYADSVKGRFTISRDNEKNTVYLLMNSLKPEDTAVYYCATDRYYRHYEVDYWGQGTQVTVSS” is “low polyreactivity”; for “QVQLVESGGGLVHAGGSLRLSCAASGSTFPRNDMGWYRQAPGKERELVAAISRGGSTNYADSVKGRFTISRDNAKNTVYLQMNSLKPEDTAVYYCAAQIFESAYGMDYWGQGTQVTVSS” it is “low polyreactivity”.
Regarding “QVQLVESGGGLVHAGGSLRLSCAASGSTFWANAMGWYRPPPGKERELVAAITSTGITYYADSVKGRFTISRDNAKNTVYLQMNSLKPEDTAVYYCAADGFRYSVYLIRNPMDYWGQGTQVTVSS”, the “polyreactivity (PSR sort gate)” value is “low polyreactivity”.
The entry for “QVQLVESGGGLVHAGGSLRLSCAASGSTSGIYAMGWYRQAPGKERELVAAIDTSGGSTYADSLKGRFTISRDNAKYTVYLQMNSLKPEDTAGYYCAKPFSSNSWSHGYWGQGTQVTVSS” is “low polyreactivity”; for “QVQLVESGGGLVHAGGSLRLSCAASGYSSSQNAMVWYRQEPGKERELLARITTDGTSTYYADSVKGRFTISRDNAKNTVYLHMNSLKPEDTAVYYCNARYPAYVVRSWYPYAYYYWGQGTQVTVSS” it is “low polyreactivity”.
